This note sets out measurements from patent US20190112340A1.

Bounds are passed on as bounds.

One test has as its target sc10 DS-Cav1. The experiment in a line: BLI (Octet), F on Ni-NTA tips, Fab in solution. (In general: Biolayer interferometry detects binding as a change in optical thickness at a sensor tip.)
The target of another test is sc9-24 DS-Cav1. The experiment in a line: BLI (Octet), F on Ni-NTA tips, Fab in solution.
Test [1] deals with sc9-10 DS-Cav1 Q98C, Q361C L95M-I221M-R429K (B18537). The experiment in a line: BLI (Octet), F on Ni-NTA tips, Fab in solution.
In test [2] the target is sc9-10 DS-Cav1 Q98C, Q361C S46G-E92D-L95M-S215P-I217P-I221M-R429K-K465Q (Long (VR26)). The experiment in a line: BLI (Octet), F on Ni-NTA tips, Fab in solution.
Test [3] has as its target sc9-10 DS-Cav1 A149C, Y458C S46G-E92D-S215P-K465Q (A2). The test is described as follows: BLI (Octet), F on Ni-NTA tips, Fab in solution.
Test [4] has as its target sc9-10 DS-Cav1 N183GC,N428C. The test is described as follows: BLI (Octet), F on Ni-NTA tips, Fab in solution.
The next test has as its target sc9-19 DS-Cav1. The test is described as follows: BLI (Octet), F on Ni-NTA tips, Fab in solution.
For test [5], the target named is sc9-10 A DS-Cav1 A149C, Y458C. The experiment in a line: BLI (Octet), F on Ni-NTA tips, Fab in solution.
Test [6] has as its target RSV F sc9-10 DS-Cav1 (human RSV subtype A (strain A2)). The experiment in a line: BLI (Octet), F on Ni-NTA tips, Fab in solution.
Test [7] has as its target RSV F sc9-9 DS-Cav1 (human RSV subtype A (strain A2)) (UniProt P03420). The experiment in a line: BLI (Octet), F on Ni-NTA tips, Fab in solution.
The target in test [8] is RSV F sc9 DS-Cav1 (human RSV subtype A (strain A2)). The test is described as follows: BLI (Octet), F on Ni-NTA tips, Fab in solution.
Test [9] concerns the target sc9-10 DS-Cav1 A149C, Y458C S46G-N67I-E92D-S215P-K465Q (A2). The test is described as follows: BLI (Octet), F on Ni-NTA tips, Fab in solution.
The next test has as its target sc9 DS-Cav1-105Q. The experiment in a line: BLI (Octet), F on Ni-NTA tips, Fab in solution.
Test [10] addresses sc9-10 DS-Cav1 N183GC, N428C S46G-N67I-E92D-S215P-K465Q (A2). The test is described as follows: BLI (Octet), F on Ni-NTA tips, Fab in solution.
The target of another test is sc11 DS-Cav1. The test is described as follows: BLI (Octet), F on Ni-NTA tips, Fab in solution.
For test [11], the target named is RSV F DS-Cav1 (human RSV subtype A (strain A2)) (UniProt P03420). The test is described as follows: BLI (Octet), F on Ni-NTA tips, Fab in solution.
A further test concerns the target sc8 DS-Cav1. The experiment in a line: BLI (Octet), F on Ni-NTA tips, Fab in solution.
The target in test [12] is sc9-10 DS-Cav1 A149C, Y458C S46G-S215P-K465Q (A2). The experiment in a line: BLI (Octet), F on Ni-NTA tips, Fab in solution.
A further test concerns the target sc9-10 Cav1only 369-455. The experiment in a line: ELISA after 1 week at 4 °C.
Another test addresses sc9-10 Cav1only 99-361. The test is described as follows: ELISA after 1 week at 4 °C.
The target in a further test is RSVF Cav1only. The test is described as follows: ELISA after 1 week at 4 °C.
A further test addresses sc9-10 Cav1only 146-458. The test is described as follows: ELISA after 1 week at 4 °C. On the technique in general: An ELISA detects its analyte on a solid surface through an enzyme-linked reagent.
The next test addresses sc9-10 Cav1only. The test is described as follows: ELISA after 1 week at 4 °C.
The next test deals with sc9-10 Cav1only 98-362. The test is described as follows: ELISA after 1 week at 4 °C.
The next test addresses sc9-10 Cav1only 98-361. The experiment in a line: ELISA after 1 week at 4 °C.
Test [13] addresses sc9-10 A149C Y458C Long CAV1only. The test is described as follows: ELISA after 1 week at 4 °C.
Another test deals with sc9-10 Cav1only 100-361. The test is described as follows: ELISA after 1 week at 4 °C.
The target in the next test is RSVF dFP. The experiment in a line: ELISA after 1 week at 4 °C.
In a further test the target is sc9-10 Cav1only 100-360. The experiment in a line: ELISA after 1 week at 4 °C.
Test [14] has as its target sc9-10 N183GC N428C Long CAV1only. The test is described as follows: ELISA after 1 week at 4 °C.
A further test deals with sc9-10 Cav1only 99-362. The experiment in a line: ELISA after 1 week at 4 °C.
Test [15] addresses RSV F DS-Cav1 (human RSV subtype A (strain A2)) (UniProt P03420). The test is described as follows: ELISA after 1 week at 4 °C.
In a further test the target is sc9-10 Cav1only 99-360. The experiment in a line: ELISA after 1 week at 4 °C.
The target in the next test is sc9-10 Cav1only 100-362. The test is described as follows: ELISA after 1 week at 4 °C.
A further test addresses sc9-10 Cav1only 98-360. The experiment in a line: ELISA after 1 week at 4 °C.
Test [16] addresses sc9-10 DS-Cav1 A149C, Y458C S46G-E92D-S215P-K465Q (A2). The test is described as follows: BLI (Octet), antibody reactivity over time at 60 °C.
Test [17] has as its target sc9-10 DS-Cav1 N183GC,N428C. The description is as above.
Test [18] addresses sc9-10 A DS-Cav1 A149C, Y458C. The description is as above.
For test [19], the target named is sc9-10 DS-Cav1 A149C, Y458C S46G-N67I-E92D-S215P-K465Q (A2). Described as above.
Test [20] has as its target sc9-10 DS-Cav1 N183GC, N428C S46G-N67I-E92D-S215P-K465Q (A2). The test is described as above.
Test [21] has as its target RSV F DS-Cav1 (human RSV subtype A (strain A2)) (UniProt P03420). Described as above.
Test [22] addresses sc9-10 DS-Cav1 A149C, Y458C S46G-S215P-K465Q (A2). Described as above.

Turning to AM22 (Fab), the Kd (commonly the constant that tells how readily two partners part at equilibrium) with sc10 DS-Cav1 stood at 0.3 nM; in the test with sc9-24 DS-Cav1, 0.3 nM; in [1], 0.1 nM; in test [2], 0.1 nM; in test [3], 0.3 nM; in [4] it was 0.2 nM. For the same substance, the Kd was 0.06 nM with sc9-19 DS-Cav1; 0.1 nM in test [5]; under 0.01 nM in [6]; 2.8 nM in [7]; under 0.01 nM in test [8]; 0.2 nM in test [9]. Further, the Kd with sc9 DS-Cav1-105Q was under 0.01 nM; in test [10], 0.4 nM; with sc11 DS-Cav1, 1.6 nM; in test [11], under 0.01 nM; with sc8 DS-Cav1, 3.9 nM; in test [12], 0.5 nM.

Turning to Mota (antibody), the ELISA signal (antigenicity) was 2.5 with sc9-10 Cav1only 369-455; 2.71 with sc9-10 Cav1only 99-361; 3.35 with RSVF Cav1only; 1.95 with sc9-10 Cav1only 146-458; 3.59 with sc9-10 Cav1only; 0.828 with sc9-10 Cav1only 98-362. Moreover, the ELISA signal (antigenicity) in the test with sc9-10 Cav1only 98-361 stood at 2.24; in test [13], 2.55; with sc9-10 Cav1only 100-361 it was 2.8; with RSVF dFP, 3.42; in the test with sc9-10 Cav1only 100-360, 1.61; in [14], 2.07. The ELISA signal (antigenicity) was 1.38 with sc9-10 Cav1only 99-362; 1.72 in test [15]; 1.11 in the test with sc9-10 Cav1only 99-360; 1.53 with sc9-10 Cav1only 100-362; 1.04 in the test with sc9-10 Cav1only 98-360.

Consider AM14 antibody, for which the ELISA signal (antigenicity) was determined as 0.0785 with sc9-10 Cav1only 369-455; 2.64 in the test with sc9-10 Cav1only 99-361; 2.81 with RSVF Cav1only; 0.102 with sc9-10 Cav1only 146-458; 3.31 in the test with sc9-10 Cav1only; 0.516 in the test with sc9-10 Cav1only 98-362. For the same substance, the ELISA signal (antigenicity) was 0.356 with sc9-10 Cav1only 98-361; 0.211 in test [13]; 0.0969 in the test with sc9-10 Cav1only 100-361; 0.05 with RSVF dFP; 0.344 in the test with sc9-10 Cav1only 100-360; 0.0514 in [14]. The ELISA signal (antigenicity) was determined as 0.805 with sc9-10 Cav1only 99-362; 1.71 in test [15]; 0.0553 in the test with sc9-10 Cav1only 99-360; 0.0541 with sc9-10 Cav1only 100-362; 0.199 in the test with sc9-10 Cav1only 98-360. The T1/2 of AM14 reactivity at 60 °C in test [16] was found to be 8.3 h; in test [17], 33.8 h; in [18] it was 7.8 h; in test [19], 7.5 h; in test [20], 27.1 h; in test [21], 1.4 h. Besides, the T1/2 of AM14 reactivity at 60 °C in test [22] was found to be 6 h.

For MPE8 (antibody), the ELISA signal (antigenicity) in the test with sc9-10 Cav1only 369-455 amounted to 2.32; with sc9-10 Cav1only 99-361 it was 2.66; in the test with RSVF Cav1only it was 3.08; with sc9-10 Cav1only 146-458, 1.85; in the test with sc9-10 Cav1only, 3.54; with sc9-10 Cav1only 98-362, 0.845. The ELISA signal (antigenicity) with sc9-10 Cav1only 98-361 came out at 1.4; in test [13], 2.5; with sc9-10 Cav1only 100-361, 0.786; in the test with RSVF dFP it was 2.77; in the test with sc9-10 Cav1only 100-360, 1.28; in test [14], 0.228. The ELISA signal (antigenicity) stood at 1.28 with sc9-10 Cav1only 99-362; 2.16 in test [15]; 0.625 with sc9-10 Cav1only 99-360; 0.298 in the test with sc9-10 Cav1only 100-362; 0.734 with sc9-10 Cav1only 98-360. The T1/2 of MPE8 reactivity at 60 °C in test [16] turned out to be 12.6 h; in [17], 48.3 h; in test [18] it was 14.4 h; in test [19], 12.7 h; in [20], 35.1 h; in [21] it was 2 h. The substance further returned a T1/2 of MPE8 reactivity at 60 °C in [22] of 11.2 h.

Regarding D25 antibody, the ELISA signal (antigenicity) with RSVF dFP came out at 0.902; in the test with sc9-10 Cav1only 100-360, 1.76; in [15], 2.13; with sc9-10 Cav1only 99-360, 1.4; in the test with sc9-10 Cav1only 98-360 it was 1.14. The T1/2 of D25 reactivity at 60 °C in test [16] was determined as 26.7 h; in [17] it was 42.4 h; in [18], 16.5 h; in test [19], 26.4 h; in [20], 23.3 h; in test [21] it was 3.2 h. In [22], this substance registered a T1/2 of D25 reactivity at 60 °C of 23.4 h.

Take 5C4 (Fab): the Kd with sc10 DS-Cav1 was found to be 38.1 nM; in the test with sc9-24 DS-Cav1 it was 20.8 nM; in [1], 101 nM; in test [2], 35.8 nM; in [3], 315 nM; in [4], 14 nM. Besides, the equilibrium dissociation constant (Kd) with sc9-19 DS-Cav1 was found to be 22.6 nM; in [5] it was 32.1 nM; in test [6], 26.2 nM; in test [7] it was 17.9 nM; in [8] it was 31.3 nM; in test [9], 127 nM. Also, the Kd amounted to 28.8 nM with sc9 DS-Cav1-105Q; 79.7 nM in test [10]; 58.8 nM with sc11 DS-Cav1; 13 nM in [11]; 92.2 nM in test [12].
